This assay deals with LR1-C1 envelope protein (Env variant of HIV-1 AC10) on virions (HIV-1). Put plainly: virion capture assay: virions titrated on plates coated with 4E10, bound virus measured by p24 ELISA; reference AC10 wild-type virions. For orientation: In an ELISA, binding on a coated surface is turned into a signal by an enzyme label.

As for 4E10 antibody, the fold increase in affinity against the AC10 wild-type variant was determined as 4 fold.

Values taken from patent publication US20150218551A1.
